T1: MCAK (purified from Sf21 cells) (human, UniProt Q99661 1-725)
T1 construct: Kif2c/MCAK, human; also called Kif2c; source: Sf21, purified (Ni-NTA, TEV cleavage, Superdex 200)
T1 sequence (looked up): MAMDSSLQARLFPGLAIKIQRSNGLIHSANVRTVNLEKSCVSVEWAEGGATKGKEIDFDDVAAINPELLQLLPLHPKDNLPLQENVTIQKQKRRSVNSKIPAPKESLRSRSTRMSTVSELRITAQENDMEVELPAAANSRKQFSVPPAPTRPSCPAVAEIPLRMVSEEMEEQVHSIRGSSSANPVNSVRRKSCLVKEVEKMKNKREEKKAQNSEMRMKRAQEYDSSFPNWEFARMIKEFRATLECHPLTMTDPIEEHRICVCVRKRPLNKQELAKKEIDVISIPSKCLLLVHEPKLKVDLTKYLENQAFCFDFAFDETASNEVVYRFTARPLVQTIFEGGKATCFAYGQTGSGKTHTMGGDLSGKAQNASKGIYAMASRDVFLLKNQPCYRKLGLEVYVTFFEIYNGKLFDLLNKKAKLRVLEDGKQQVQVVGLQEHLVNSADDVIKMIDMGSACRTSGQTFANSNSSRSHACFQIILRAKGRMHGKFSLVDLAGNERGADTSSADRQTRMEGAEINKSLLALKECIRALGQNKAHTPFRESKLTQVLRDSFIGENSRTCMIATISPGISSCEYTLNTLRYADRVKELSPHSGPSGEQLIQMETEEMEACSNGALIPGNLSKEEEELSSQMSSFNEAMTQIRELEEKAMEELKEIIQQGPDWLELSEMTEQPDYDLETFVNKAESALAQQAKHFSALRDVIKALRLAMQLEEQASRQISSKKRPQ

B1: Kif2a (purified from Sf21 cells) (natural protein, human, UniProt O00139-1 1-679, looked up)
chain: MVTSLNEDNESVTVEWIENGDTKGKEIDLESIFSLNPDLVPDEEIEPSPETPPPPASSAKVNKIVKNRRTVASIKNDPPSRDNRVVGSARARPSQFPEQSSSAQQNGSVSDISPVQAAKKEFGPPSRRKSNCVKEVEKLQEKREKRRLQQQELREKRAQDVDATNPNYEIMCMIRDFRGSLDYRPLTTADPIDEHRICVCVRKRPLNKKETQMKDLDVITIPSKDVVMVHEPKQKVDLTRYLENQTFRFDYAFDDSAPNEMVYRFTARPLVETIFERGMATCFAYGQTGSGKTHTMGGDFSGKNQDCSKGIYALAARDVFLMLKKPNYKKLELQVYATFFEIYSGKVFDLLNRKTKLRVLEDGKQQVQVVGLQEREVKCVEDVLKLIDIGNSCRTSGQTSANAHSSRSHAVFQIILRRKGKLHGKFSLIDLAGNERGADTSSADRQTRLEGAEINKSLLALKECIRALGRNKPHTPFRASKLTQVLRDSFIGENSRTCMIATISPGMASCENTLNTLRYANRVKELTVDPTAAGDVRPIMHHPPNQIDDLETQWGVGSSPQRDDLKLLCEQNEEEVSPQLFTFHEAVSQMVEMEEQVVEDHRAVFQESIRWLEDEKALLEMTEEVDYDVDSYATQLEAILEQKIDILTELRDKVKSFRAALQEEEQASKQINPKRPRAL
notes: source: Sf21, purified (Ni-NTA, TEV cleavage, Superdex 200)
B2: Fbxw5/Skp1 sub-complex (complex, human)
chain 1: MDEGGTPLLPDSLVYQIFLSLGPADVLAAGLVCRQWQAVSRDEFLWREQFYRYYQVARDVPRHPAAMSWYEEFQRLYDTVPCVEVQTLREHTDQVLHLSFSHSGYQFASCSKDCTVKIWSNDLTISLLHSADMRPYNWSYTQFSQFNKDDSLLLASGVFLGPHNSSSGEIAVISLDSFALLSRVRNKPYDVFGCWLTETSLISGNLHRIGDITSCSVLWLNNAFQDVESENVNVVKRLFKIQNLNASTVRTVMVADCSRFDSPDLLLEAGDPATSPCRIFDLGSDNEEVVAGPAPAHAKEGLRHFLDRVLEGRAQPQLSERMLETKVAELLAQGHTKPPERSATGAKSKYLIFTTGCLTYSPHQIGIKQILPHQMTTAGPVLGEGRGSDAFFDALDHVIDIHGHIIGMGLSPDNRYLYVNSRAWPNGAVVADPMQPPPIAEEIDLLVFDLKTMREVRRALRAHRAYTPNDECFFIFLDVSRDFVASGAEDRHGYIWDRHYNICLARLRHEDVVNSVVFSPQEQELLLTASDDATIKAWRSPRTMRVLQAPRPRPRTFFSWLASQRR
chain 2: MPSIKLQSSDGEIFEVDVEIAKQSVTIKTMLEDLGMDPVPLPNVNAAILKKVIQWCTHHKDDPPDDIPVWDQEFLKVDQGTLFELILAANYLDIKGLLDVTCKTVANMIKGKTPEEIRKTFNIKNDFTEEEEAQVRKENQWCEEK
notes: Fbxw5, human; Skp1, human, with deletion of two loops (aa 38-43 and 71-82), plasmid pFastBac1-Skp1ΔΔ; pFastBac1-Skp1ΔΔ is the Skp1 baculovirus plasmid that the methods describe; source: Sf21, co-infected with both baculoviruses, purified (Ni-NTA, Superdex 200); not shown: His tag (from the Ni-NTA purification and precipitation)

Tests used:
[1] = biological target: B2; assay: pull-down; purified proteins from Sf21 cells, 5-fold molar excess of prey over Fbxw5/Skp1 bait, mixed with competing E. coli lysate in PD buffer (20 mM HEPES pH 7.3, 110 mM K-acetate, 300 mM NaCl, 20 mM imidazole, 0.1% NP-40), precipitated via Ni-NTA agarose, SDS-PAGE; conditions: both partners purified
[2] = biological target: T1, MCAK (purified from Sf21 cells); assay: as above; conditions: both partners purified

Binder	binding result [1]	binding result [2]
B1	binds	–
B2	–	binds

— PMC8441365, “SCF^Fbxw5 targets kinesin‐13 proteins to facilitate ciliogenesis” (The EMBO Journal, 2021)
